In one assay the target is HLA-A*02:16. In words: IEDB peptide-MHC binding, purified MHC/direct/fluorescence; filed as Kd, often an IC50 or EC50 that approximates it; ≥ and ≤ were set here for values at or beyond the usual limits of such assays.
Another assay addresses HLA-A*02:19. Described as above.
For the next assay, the target named is HLA-A*02:12. The description is as above.
The target of a further assay is HLA-A*03:01. The assay is described as above.
The target of the next assay is HLA-A*23:01. The description is as above.
The target of another assay is HLA-A*29:02. Described as above.
The target in another assay is HLA-A*68:02. Described as above.
For a further assay, the target named is HLA-A*02:11. Described as above.
The next assay addresses HLA-A*02:03. The assay is described as above.
The target of another assay is HLA-A*24:03. Described as above.
Another assay deals with HLA-B*27:05. Briefly: IEDB peptide-MHC binding, purified MHC/competitive/fluorescence; filed as Kd, often an IC50 or EC50 that approximates it; ≥ and ≤ were set here for values at or beyond the usual limits of such assays.
Assay [1] concerns the target HLA-B*57:01. The description is as above.
In assay [2] the target is HLA-B*15:01. Described as above.
Assay [3] concerns the target HLA-A*02:01. Described as above.
The target in assay [4] is HLA-B*39:01. Described as above.
Assay [5] has as its target HLA-B*18:01. Described as above.
For assay [6], the target named is HLA-B*51:01. The assay is described as above.
The target of assay [7] is HLA-B*46:01. Described as above.
Assay [8] has as its target HLA-A*26:01. Described as above.
In assay [9] the target is HLA-A*69:01. The assay is described as above.
Assay [10] deals with HLA-B*57:01. Briefly: IEDB peptide-MHC binding, purified MHC/direct/fluorescence; filed as Kd, often an IC50 or EC50 that approximates it; ≥ and ≤ were set here for values at or beyond the usual limits of such assays.
Assay [11] concerns the target HLA-A*02:01. The description is as above.
Assay [12] addresses HLA-B*18:01. The description is as above.
The target of assay [13] is HLA-B*46:01. The description is as above.
The target in a further assay is HLA-B*27:03. The description is as above.
In assay [14] the target is HLA-A*26:01. Described as above.
Assay [15] addresses HLA-A*69:01. The description is as above. The conditions noted are these: source organism: Bacillus cereus G9842.
Assay [16] concerns the target HLA-B*15:01. The assay is described as above.
Assay [17] has as its target HLA-B*39:01. Described as above.
In assay [18] the target is HLA-B*51:01. Described as above.
Another assay concerns the target HLA-B*15:17. Briefly: IEDB peptide-MHC binding, purified MHC/competitive/fluorescence; filed as Kd, often an IC50 or EC50 that approximates it; ≥ and ≤ were set here for values at or beyond the usual limits of such assays. The settings on record: source organism: Orthohantavirus negraense.
[19] abbreviates: source organism: Orthohantavirus tulaense.
The mark [20] stands for this setting: source organism: Bacillus cereus G9842.
[21] abbreviates: source organism: Mycobacterium tuberculosis str. Haarlem.
Setting [22] is: source organism: Rickettsia bellii RML369-C.
Setting [23] is: source organism: Orthohantavirus negraense.
[24] abbreviates: source organism: Entamoeba histolytica HM-1:IMSS.

The term Kd denotes a measure of binding affinity in units of concentration. The low end stands for a tighter complex, the high end for a looser complex.

As to RRAYSGKQY, the equilibrium dissociation constant (Kd) in the assay with HLA-A*02:16 (setting [19]), with HLA-A*02:19 (setting [19]), in the assay with HLA-A*02:12 (setting [19]), with HLA-A*03:01 (setting [19]), with HLA-A*23:01 (setting [19]) and with HLA-A*29:02 (setting [19]) was no less than 20 µM each time. Also, the Kd was no less than 20 µM with HLA-A*68:02 (setting [19]); no less than 20 µM with HLA-A*02:11 (setting [19]); no less than 20 µM in the assay with HLA-A*02:03 (setting [19]); no less than 20 µM with HLA-A*24:03 (setting [19]); 0.23 µM with HLA-B*27:05 (source organism: Kurkino virus); no less than 20 µM in the assay with HLA-B*57:01 [1] (source organism: Kurkino virus). The Kd with HLA-B*15:01 [2] (source organism: Kurkino virus), with HLA-A*02:01 [3] (source organism: Kurkino virus), in the assay with HLA-B*39:01 [4] (source organism: Kurkino virus), with HLA-B*18:01 [5] (source organism: Kurkino virus), with HLA-B*51:01 [6] (source organism: Kurkino virus) and with HLA-B*46:01 [7] (source organism: Kurkino virus) was no less than 20 µM in each case. For the same sequence, the Kd in the assay with HLA-A*26:01 [8] (source organism: Kurkino virus) and in the assay with HLA-A*69:01 [9] (source organism: Kurkino virus) was no less than 20 µM throughout.
As for TQIPRQMVL, the Kd with HLA-B*57:01 [10] (setting [20]), with HLA-A*02:16 (setting [20]), with HLA-A*02:19 (setting [20]), in the assay with HLA-A*02:12 (setting [20]), with HLA-A*02:01 [11] (setting [20]) and with HLA-A*03:01 (setting [20]) was no less than 20 µM in each case. In addition, the Kd with HLA-B*18:01 [12] (setting [20]), with HLA-A*29:02 (setting [20]), in the assay with HLA-A*68:02 (setting [20]), in the assay with HLA-B*46:01 [13] (setting [20]), with HLA-A*02:11 (setting [20]) and with HLA-B*27:03 (setting [20]) was no less than 20 µM throughout. The Kd with HLA-A*26:01 [14] (setting [20]), with HLA-A*24:03 (setting [20]) and with HLA-A*69:01 [15] was no less than 20 µM each time.
Regarding LPVEYLQVP, the Kd in the assay with HLA-B*57:01 [10] (setting [21]), with HLA-A*02:16 (setting [21]), with HLA-A*02:19 (setting [21]), in the assay with HLA-A*02:12 (setting [21]), with HLA-B*15:01 [16] (setting [21]) and in the assay with HLA-A*02:01 [11] (setting [21]) was no less than 20 µM throughout. Besides, the Kd in the assay with HLA-B*39:01 [17] (setting [21]), in the assay with HLA-A*03:01 (setting [21]), in the assay with HLA-B*18:01 [12] (setting [21]), in the assay with HLA-B*51:01 [18] (setting [21]), with HLA-A*68:02 (setting [21]) and with HLA-B*46:01 [13] (setting [21]) was no less than 20 µM throughout. For the same sequence, the Kd with HLA-A*02:11 (setting [21]), with HLA-B*27:03 (setting [21]), with HLA-A*02:03 (setting [21]) and with HLA-A*26:01 [14] (setting [21]) was no less than 20 µM in each case.
NPLEIYQEI: the equilibrium dissociation constant (Kd) in the assay with HLA-B*57:01 [10] (setting [22]), in the assay with HLA-A*02:16 (setting [22]), in the assay with HLA-A*02:19 (setting [22]), in the assay with HLA-A*02:12 (setting [22]), with HLA-B*15:01 [16] (setting [22]) and with HLA-A*02:01 [11] (setting [22]) was no less than 20 µM in each case. Further, the Kd is no less than 20 µM with HLA-B*39:01 [17] (setting [22]); no less than 20 µM in the assay with HLA-A*03:01 (setting [22]); no less than 20 µM in the assay with HLA-B*18:01 [12] (setting [22]); no less than 20 µM with HLA-A*29:02 (setting [22]); 0.132 µM in the assay with HLA-B*51:01 [18] (setting [22]); no less than 20 µM in the assay with HLA-B*46:01 [13] (setting [22]). For the same sequence, the Kd with HLA-A*02:11 (setting [22]), in the assay with HLA-B*27:03 (setting [22]), with HLA-A*02:03 (setting [22]), with HLA-A*26:01 [14] (setting [22]) and with HLA-A*24:03 (setting [22]) was no less than 20 µM each time.
With RRFTQAIYD, the dissociation constant (Kd) with HLA-A*02:16 (setting [23]), with HLA-A*02:19 (setting [23]), in the assay with HLA-A*02:12 (setting [23]), with HLA-A*03:01 (setting [23]), with HLA-A*23:01 (setting [23]) and with HLA-A*29:02 (setting [23]) was no less than 20 µM throughout. Besides, the Kd in the assay with HLA-A*68:02 (setting [23]) is no less than 20 µM; with HLA-A*02:11 (setting [23]), no less than 20 µM; in the assay with HLA-A*02:03 (setting [23]), no less than 20 µM; with HLA-A*24:03 (setting [23]), no less than 20 µM; with HLA-B*27:05 (setting [23]) it was 0.317 µM; with HLA-B*57:01 [1] (setting [23]), no less than 20 µM. Besides, the Kd with HLA-B*15:01 [2] (setting [23]), in the assay with HLA-A*02:01 [3] (setting [23]), with HLA-B*39:01 [4] (setting [23]), with HLA-B*18:01 [5] (setting [23]), in the assay with HLA-B*15:17 and in the assay with HLA-B*51:01 [6] (setting [23]) was no less than 20 µM in each case. Also, the Kd in the assay with HLA-B*46:01 [7] (setting [23]), with HLA-A*26:01 [8] (setting [23]) and with HLA-A*69:01 [9] (setting [23]) was no less than 20 µM each time.
VKINIFPLY: the Kd in the assay with HLA-B*57:01 [10] (setting [24]), in the assay with HLA-A*02:16 (setting [24]), in the assay with HLA-A*02:19 (setting [24]), with HLA-A*02:12 (setting [24]), in the assay with HLA-A*02:01 [11] (setting [24]) and with HLA-B*39:01 [17] (setting [24]) was no less than 20 µM each time. Besides, the Kd in the assay with HLA-A*03:01 (setting [24]), with HLA-B*51:01 [18] (setting [24]), in the assay with HLA-A*68:02 (setting [24]), in the assay with HLA-B*46:01 [13] (setting [24]), with HLA-B*27:03 (setting [24]) and with HLA-A*02:03 (setting [24]) was no less than 20 µM throughout. In the assay with HLA-A*26:01 [14] (setting [24]), this sequence showed a dissociation constant (Kd) of no less than 20 µM.
